Reference: patent US20030044911A1

Columns and labels:
Experiment in all cases: cell-based or functional assay
[1] = target: N-type calcium channel formed by human brain α1B subunit together with rabbit β3 subunit, expressed in Xenopus oocytes (human; rabbit) (UniProt Q00975)
[2] = target: rabbit cardiac α1C subunit, modified cDNA ΔN60 truncated by 60 amino acids at the N-terminal end, expressed in Xenopus oocytes (rabbit) (UniProt P15381)
[3] = target: rat brain α1G subunit expressed from cRNA in Xenopus oocytes (rat) (UniProt O54898)
Chain of UniProt O54898 (O54898 whole entry): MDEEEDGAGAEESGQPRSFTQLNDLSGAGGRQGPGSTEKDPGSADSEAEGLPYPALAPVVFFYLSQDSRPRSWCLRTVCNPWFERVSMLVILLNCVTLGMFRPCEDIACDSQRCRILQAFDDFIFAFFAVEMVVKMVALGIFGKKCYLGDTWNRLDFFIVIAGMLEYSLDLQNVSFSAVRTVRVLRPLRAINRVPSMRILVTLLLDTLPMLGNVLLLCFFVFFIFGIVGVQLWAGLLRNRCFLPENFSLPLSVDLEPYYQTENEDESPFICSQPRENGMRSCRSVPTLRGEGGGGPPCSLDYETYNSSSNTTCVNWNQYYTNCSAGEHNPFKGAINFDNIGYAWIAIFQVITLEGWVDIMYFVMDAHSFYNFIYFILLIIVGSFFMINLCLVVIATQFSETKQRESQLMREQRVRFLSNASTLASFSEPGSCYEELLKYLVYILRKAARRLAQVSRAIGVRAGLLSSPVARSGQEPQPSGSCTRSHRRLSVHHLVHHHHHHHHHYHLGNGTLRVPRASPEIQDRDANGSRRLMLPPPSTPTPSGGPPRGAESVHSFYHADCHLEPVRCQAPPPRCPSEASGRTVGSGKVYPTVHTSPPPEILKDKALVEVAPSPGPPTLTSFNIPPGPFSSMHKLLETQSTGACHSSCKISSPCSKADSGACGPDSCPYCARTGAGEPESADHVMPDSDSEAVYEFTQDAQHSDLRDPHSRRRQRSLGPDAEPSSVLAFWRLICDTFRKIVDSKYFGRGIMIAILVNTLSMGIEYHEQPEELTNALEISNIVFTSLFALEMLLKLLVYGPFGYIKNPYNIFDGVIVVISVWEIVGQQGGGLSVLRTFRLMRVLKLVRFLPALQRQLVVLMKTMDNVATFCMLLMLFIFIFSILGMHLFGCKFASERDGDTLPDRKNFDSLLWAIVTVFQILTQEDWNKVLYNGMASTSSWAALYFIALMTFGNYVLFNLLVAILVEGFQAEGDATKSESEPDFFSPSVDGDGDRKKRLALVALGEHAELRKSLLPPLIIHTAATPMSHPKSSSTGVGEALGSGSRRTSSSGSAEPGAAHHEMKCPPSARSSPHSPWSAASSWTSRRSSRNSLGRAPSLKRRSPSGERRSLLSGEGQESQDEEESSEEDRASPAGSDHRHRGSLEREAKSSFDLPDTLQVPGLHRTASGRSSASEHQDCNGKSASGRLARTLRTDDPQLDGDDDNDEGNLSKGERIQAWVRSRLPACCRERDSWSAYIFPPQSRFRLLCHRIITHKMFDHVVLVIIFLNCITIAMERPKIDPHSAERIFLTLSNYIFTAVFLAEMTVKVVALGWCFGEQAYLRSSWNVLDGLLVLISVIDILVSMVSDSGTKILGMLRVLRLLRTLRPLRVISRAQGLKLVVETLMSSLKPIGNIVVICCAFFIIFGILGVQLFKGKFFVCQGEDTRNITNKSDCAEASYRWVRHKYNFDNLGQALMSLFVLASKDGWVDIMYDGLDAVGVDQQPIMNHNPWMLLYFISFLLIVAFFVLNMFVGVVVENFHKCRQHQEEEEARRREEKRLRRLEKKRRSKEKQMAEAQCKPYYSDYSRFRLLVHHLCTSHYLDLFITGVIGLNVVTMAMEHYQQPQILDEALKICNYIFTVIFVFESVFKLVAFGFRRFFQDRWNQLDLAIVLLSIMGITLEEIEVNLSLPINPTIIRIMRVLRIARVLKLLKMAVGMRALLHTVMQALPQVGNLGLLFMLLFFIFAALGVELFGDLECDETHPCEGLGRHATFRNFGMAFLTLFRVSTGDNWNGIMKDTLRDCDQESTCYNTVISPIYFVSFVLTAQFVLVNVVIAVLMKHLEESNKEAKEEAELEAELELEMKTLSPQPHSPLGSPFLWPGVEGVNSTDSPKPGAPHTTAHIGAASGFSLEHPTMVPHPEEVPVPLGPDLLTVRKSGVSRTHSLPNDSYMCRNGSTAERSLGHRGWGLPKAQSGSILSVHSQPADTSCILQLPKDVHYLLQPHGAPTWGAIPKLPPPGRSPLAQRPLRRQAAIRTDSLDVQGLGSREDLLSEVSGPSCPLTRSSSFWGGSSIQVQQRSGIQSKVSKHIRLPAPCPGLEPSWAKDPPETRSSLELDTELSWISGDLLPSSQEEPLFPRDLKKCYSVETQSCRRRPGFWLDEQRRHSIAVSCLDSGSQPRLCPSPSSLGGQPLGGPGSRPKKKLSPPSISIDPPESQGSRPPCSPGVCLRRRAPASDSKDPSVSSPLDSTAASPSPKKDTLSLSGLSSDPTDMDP

Chain of UniProt Q00975 (Q00975 whole entry, chain 1 of 2, the tested form may be a part): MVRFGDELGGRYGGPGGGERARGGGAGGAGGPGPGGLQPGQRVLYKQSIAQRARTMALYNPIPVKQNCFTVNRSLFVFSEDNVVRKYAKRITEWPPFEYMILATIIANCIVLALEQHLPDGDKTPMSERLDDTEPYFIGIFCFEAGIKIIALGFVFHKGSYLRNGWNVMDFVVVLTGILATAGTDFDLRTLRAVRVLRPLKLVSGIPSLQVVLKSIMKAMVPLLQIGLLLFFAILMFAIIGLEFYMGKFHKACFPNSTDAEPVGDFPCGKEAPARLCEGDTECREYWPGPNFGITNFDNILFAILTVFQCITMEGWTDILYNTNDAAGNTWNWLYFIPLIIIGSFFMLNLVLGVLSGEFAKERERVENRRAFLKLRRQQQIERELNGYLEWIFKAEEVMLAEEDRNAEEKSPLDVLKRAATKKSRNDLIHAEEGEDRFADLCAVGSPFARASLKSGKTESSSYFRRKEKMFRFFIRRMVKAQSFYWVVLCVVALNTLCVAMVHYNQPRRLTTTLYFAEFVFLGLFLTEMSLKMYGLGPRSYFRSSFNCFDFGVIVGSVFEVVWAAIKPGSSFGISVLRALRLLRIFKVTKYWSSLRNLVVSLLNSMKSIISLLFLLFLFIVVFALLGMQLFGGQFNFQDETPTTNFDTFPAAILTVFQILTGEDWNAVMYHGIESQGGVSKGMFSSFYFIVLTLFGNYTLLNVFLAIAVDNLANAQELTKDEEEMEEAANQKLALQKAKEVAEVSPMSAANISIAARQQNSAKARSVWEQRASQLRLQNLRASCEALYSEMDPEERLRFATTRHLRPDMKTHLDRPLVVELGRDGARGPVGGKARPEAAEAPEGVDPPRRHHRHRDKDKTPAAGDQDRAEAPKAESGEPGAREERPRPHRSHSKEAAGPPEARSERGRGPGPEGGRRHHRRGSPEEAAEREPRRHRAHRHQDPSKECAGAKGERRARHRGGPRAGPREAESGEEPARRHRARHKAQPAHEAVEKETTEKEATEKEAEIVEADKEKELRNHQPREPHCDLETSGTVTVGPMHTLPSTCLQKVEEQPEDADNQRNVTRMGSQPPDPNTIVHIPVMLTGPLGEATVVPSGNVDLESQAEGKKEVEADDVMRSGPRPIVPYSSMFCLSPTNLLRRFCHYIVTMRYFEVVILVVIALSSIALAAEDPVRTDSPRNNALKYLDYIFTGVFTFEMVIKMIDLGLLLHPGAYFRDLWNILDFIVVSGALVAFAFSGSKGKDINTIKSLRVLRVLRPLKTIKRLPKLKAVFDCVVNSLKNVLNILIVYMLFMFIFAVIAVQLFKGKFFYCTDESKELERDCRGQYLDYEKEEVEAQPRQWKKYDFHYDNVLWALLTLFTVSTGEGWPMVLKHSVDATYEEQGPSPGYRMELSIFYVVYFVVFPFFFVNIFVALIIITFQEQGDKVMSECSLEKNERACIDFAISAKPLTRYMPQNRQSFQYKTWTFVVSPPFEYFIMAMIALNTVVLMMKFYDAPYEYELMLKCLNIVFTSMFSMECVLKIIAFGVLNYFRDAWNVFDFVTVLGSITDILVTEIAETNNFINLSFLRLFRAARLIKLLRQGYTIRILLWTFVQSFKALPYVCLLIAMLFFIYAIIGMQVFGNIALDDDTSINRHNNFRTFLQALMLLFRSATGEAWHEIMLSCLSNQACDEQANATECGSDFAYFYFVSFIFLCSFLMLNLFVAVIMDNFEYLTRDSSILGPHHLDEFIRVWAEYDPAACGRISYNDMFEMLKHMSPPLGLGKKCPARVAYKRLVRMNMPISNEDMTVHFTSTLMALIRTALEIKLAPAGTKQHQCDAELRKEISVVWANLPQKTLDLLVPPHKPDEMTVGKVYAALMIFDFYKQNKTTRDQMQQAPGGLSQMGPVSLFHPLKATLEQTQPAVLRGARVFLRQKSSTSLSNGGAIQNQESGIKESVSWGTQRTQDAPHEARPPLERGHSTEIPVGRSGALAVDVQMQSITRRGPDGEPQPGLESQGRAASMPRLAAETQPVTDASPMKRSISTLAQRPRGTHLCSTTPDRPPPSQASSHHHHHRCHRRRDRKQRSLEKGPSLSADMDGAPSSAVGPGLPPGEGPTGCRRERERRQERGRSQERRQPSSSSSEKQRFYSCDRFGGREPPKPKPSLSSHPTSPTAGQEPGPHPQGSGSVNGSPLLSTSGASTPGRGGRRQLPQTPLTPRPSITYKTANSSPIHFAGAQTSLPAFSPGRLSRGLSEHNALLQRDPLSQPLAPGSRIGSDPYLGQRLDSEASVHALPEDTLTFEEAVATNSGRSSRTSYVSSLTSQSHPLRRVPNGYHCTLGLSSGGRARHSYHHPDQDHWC
Chain of UniProt Q00975 (P54286 whole entry, chain 2 of 2, further chain, the tested form may be a part): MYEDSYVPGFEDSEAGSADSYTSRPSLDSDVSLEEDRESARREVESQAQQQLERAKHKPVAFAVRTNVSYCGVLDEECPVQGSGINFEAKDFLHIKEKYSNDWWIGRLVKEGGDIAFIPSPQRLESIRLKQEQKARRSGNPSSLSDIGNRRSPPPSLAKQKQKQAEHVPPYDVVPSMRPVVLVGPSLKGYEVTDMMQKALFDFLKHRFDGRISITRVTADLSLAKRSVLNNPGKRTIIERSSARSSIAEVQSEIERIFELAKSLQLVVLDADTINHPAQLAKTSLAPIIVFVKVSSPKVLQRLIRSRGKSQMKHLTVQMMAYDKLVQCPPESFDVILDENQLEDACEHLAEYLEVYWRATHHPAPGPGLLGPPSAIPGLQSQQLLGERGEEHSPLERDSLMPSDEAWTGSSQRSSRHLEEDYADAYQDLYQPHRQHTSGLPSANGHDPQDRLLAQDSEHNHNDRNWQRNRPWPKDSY

current remaining at the end of a 50 ms test pulse to +20 mV, percent of peak current (inactivation) (% of peak current) [1] | fold increase of N-type current magnitude [1] | peak barium current (N-type), two-electrode voltage clamp in Xenopus oocytes [1] | L-type peak current amplitude at +30 mV, α1C/α2δ-2 against α1C alone, Xenopus oocytes [2] | T-type current amplitude, α1G/α2δ-2 against α1G alone, Xenopus oocytes [3] | Substance
33 | 9 fold | 9.1 µA | – | – | rabbit skeletal muscle α2δ-1 subunit expressed from cRNA in Xenopus oocytes (from UniProt P13806 27-1106)
59 | – | 7.6 µA | 201% | 176% | α2δ-2 subunit expressed from cRNA in Xenopus oocytes (from UniProt Q9NY47 19-1150)
